The text below walks through data of article PMC7764910, “Structural Insight into the Contributions of the N-Terminus and Key Active-Site Residues to the Catalytic Efficiency of Glutamine Synthetase 2” (Biomolecules, 2020).

For series [1], the target named is T1, DmGS2 (Drosophila melanogaster, UniProt P20478).
T1 construct: gene Gs2; 367 residues per monomer modelled
T1 sequence (P20478 1-369): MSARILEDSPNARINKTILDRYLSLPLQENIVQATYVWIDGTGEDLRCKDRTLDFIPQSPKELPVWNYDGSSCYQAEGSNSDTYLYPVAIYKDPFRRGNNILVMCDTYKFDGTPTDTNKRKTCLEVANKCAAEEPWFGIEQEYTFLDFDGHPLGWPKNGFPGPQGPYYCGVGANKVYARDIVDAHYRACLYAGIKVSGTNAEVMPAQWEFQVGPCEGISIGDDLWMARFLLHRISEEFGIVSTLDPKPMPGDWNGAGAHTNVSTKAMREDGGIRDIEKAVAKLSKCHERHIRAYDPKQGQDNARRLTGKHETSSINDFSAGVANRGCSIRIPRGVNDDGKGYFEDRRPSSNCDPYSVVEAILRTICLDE
Briefly: X-ray crystal structure, […] Å. Type of series: binding. The conditions noted are these: active site; crystallised with ATP and MgCl2, ADP found in all 10 monomers.

Substrate in series [2]: N
Briefly: purified protein. Particulars: saturating glutamate, 12 mM ATP, 50 mM MgCl2, 50 mM imidazole-HCl pH 7.0, 37 °C.

Substrate in series [3]: NC(=O)CC[C@H](N)C(=O)O
Briefly: purified protein. Type of series: biochemical, Drosophila melanogaster. The conditions noted are these: saturating hydroxylamine, 3 mM MnCl2, 0.4 mM ADP, 20 mM potassium arsenate, 40 mM imidazole pH 7.9, 37 °C.

Substrate in series [4]: NO
The series is described as follows: purified protein. Type of series: biochemical, Drosophila melanogaster. Particulars: saturating glutamine, 3 mM MnCl2, 0.4 mM ADP, 20 mM potassium arsenate, 40 mM imidazole pH 7.9, 37 °C.

Substrate in series [5]: N[C@@H](CCC(=O)O)C(=O)O
Briefly: purified protein. It is filed as biochemical, Drosophila melanogaster. The conditions noted are these: saturating NH4Cl, 12 mM ATP, 50 mM MgCl2, 50 mM imidazole-HCl pH 7.0, 37 °C.

Series [6] deals with the molecule itself. Briefly: AUC; sedimentation velocity, 20 °C, samples 500 μL at 1.0 mg/mL, absorbance at 280 nm, SEDFIT85.
Series [7] deals with the molecule itself. The series is described as follows: crystal structure; DmGS2 with ADP bound; protein 12 mg/mL in 20 mM Tris-HCl pH 7.9, 150 mM NaCl, 5 mM MgCl2, 5 mM ATP, 1 mM sodium 2-mercaptoethanesulphonate; hanging-drop vapor diffusion; 2.12 Å.

Take `Nc1ncnc2c1ncn2[C@@H]1O[C@H](COP(=O)(O)OP(=O)(O)O)[C@@H](O)[C@H]1O` [ADP]: the “X-ray crystal structure, 2.12 Å” value in series [1] is “A structure was obtained for the DmGS2 decamer in complex with ADP”.

B1: DmGS2 (Drosophila melanogaster; P214A) (protein)
chain: MSARILEDSPNARINKTILDRYLSLPLQENIVQATYVWIDGTGEDLRCKDRTLDFIPQSPKELPVWNYDGSSCYQAEGSNSDTYLYPVAIYKDPFRRGNNILVMCDTYKFDGTPTDTNKRKTCLEVANKCAAEEPWFGIEQEYTFLDFDGHPLGWPKNGFPGPQGPYYCGVGANKVYARDIVDAHYRACLYAGIKVSGTNAEVMPAQWEFQVGACEGISIGDDLWMARFLLHRISEEFGIVSTLDPKPMPGDWNGAGAHTNVSTKAMREDGGIRDIEKAVAKLSKCHERHIRAYDPKQGQDNARRLTGKHETSSINDFSAGVANRGCSIRIPRGVNDDGKGYFEDRRPSSNCDPYSVVEAILRTICLDE
notes: 367 residues per monomer modelled
The Km is the substrate concentration at which the rate is half of its maximum. As usually defined, the Vmax is the top rate of the reaction or transport when substrate is in excess. One may read the kcat as the maximal rate divided by the concentration of active sites. In general, kcat/Km refers to the turnover number divided by the Michaelis constant. For B1, the Michaelis-Menten constant (Km) came to 0.11 ± 0.03 mM in series [2], 30.6 ± 6.1 mM in series [3], 1.5 ± 0.2 mM in series [4] and 6.8 ± 2.2 mM in series [5]. Also, the Vmax was 5.5 µM/min in series [2], 150 µM/min in series [3], 88 µM/min in series [4] and 10.6 µM/min in series [5]. Moreover, the figures for the kcat in series [2], in series [3] and in series [5] were 0.0183 s⁻¹, 0.5 ± 0.0333 s⁻¹ and 0.0355 ± 0.00183 s⁻¹, respectively. In addition, the catalytic efficiency (kcat/Km) in series [2] was 177 M⁻¹ s⁻¹; in series [3], 16.8 ± 2.33 M⁻¹ s⁻¹; in series [5], 6.33 ± 2.17 M⁻¹ s⁻¹.

B2: DmGS2 (Drosophila melanogaster; E311A) (protein)
chain: MSARILEDSPNARINKTILDRYLSLPLQENIVQATYVWIDGTGEDLRCKDRTLDFIPQSPKELPVWNYDGSSCYQAEGSNSDTYLYPVAIYKDPFRRGNNILVMCDTYKFDGTPTDTNKRKTCLEVANKCAAEEPWFGIEQEYTFLDFDGHPLGWPKNGFPGPQGPYYCGVGANKVYARDIVDAHYRACLYAGIKVSGTNAEVMPAQWEFQVGPCEGISIGDDLWMARFLLHRISEEFGIVSTLDPKPMPGDWNGAGAHTNVSTKAMREDGGIRDIEKAVAKLSKCHERHIRAYDPKQGQDNARRLTGKHATSSINDFSAGVANRGCSIRIPRGVNDDGKGYFEDRRPSSNCDPYSVVEAILRTICLDE
notes: as for B1
On to B2, for which, in series [5], the Km is recorded as 26.2 ± 2.2 mM, the Vmax came to 5.5 µM/min, the kcat amounted to 0.0183 ± 0.00133 s⁻¹ and the kcat/Km was found to be 0.7 ± 0.00833 M⁻¹ s⁻¹.

B3: Drosophila melanogaster glutamine synthetase 2 (DmGS2), wild type (enzyme, UniProt P20478 1-369, looked up)
chain: MSARILEDSPNARINKTILDRYLSLPLQENIVQATYVWIDGTGEDLRCKDRTLDFIPQSPKELPVWNYDGSSCYQAEGSNSDTYLYPVAIYKDPFRRGNNILVMCDTYKFDGTPTDTNKRKTCLEVANKCAAEEPWFGIEQEYTFLDFDGHPLGWPKNGFPGPQGPYYCGVGANKVYARDIVDAHYRACLYAGIKVSGTNAEVMPAQWEFQVGPCEGISIGDDLWMARFLLHRISEEFGIVSTLDPKPMPGDWNGAGAHTNVSTKAMREDGGIRDIEKAVAKLSKCHERHIRAYDPKQGQDNARRLTGKHETSSINDFSAGVANRGCSIRIPRGVNDDGKGYFEDRRPSSNCDPYSVVEAILRTICLDE
notes: Glutamine synthetase 2, cytoplasmic (DmGS2), Drosophila melanogaster; full-length cDNA of mature DmGS2, GenBank X52759; residues numbered to 369; 367 residues of each monomer seen in the crystal; Decamer of two stacked pentamers in the crystal (with ADP); pentamer and decamer in solution by AUC; No removal of the tags is described; also called WT DmGS2; WT; copies: 10
The stoichiometry N is the number of molecules, sites or subunits per partner or assembly. As for B3, the Km in series [2] is given as 0.47 ± 0.03 mM; in series [3], 43.1 ± 9.7 mM; in series [4], 2.0 ± 0.4 mM; in series [5], 5.9 ± 1.6 mM. Moreover, the Vmax in series [2] came to 4.6 µM/min; in series [3] it was 120 µM/min; in series [4], 64 µM/min; in series [5], 9.2 µM/min. For the same molecule, the kcat in series [2] was found to be 0.0153 s⁻¹; in series [3], 0.4 ± 0.0333 s⁻¹; in series [5] it was 0.0307 ± 0.00133 s⁻¹. The kcat/Km worked out at 32.7 M⁻¹ s⁻¹ in series [2], 9.67 ± 1.33 M⁻¹ s⁻¹ in series [3] and 5.67 ± 1.33 M⁻¹ s⁻¹ in series [5]. For the same molecule, the results for the “stoichiometry N” value in series [6] and in series [7] were 5 and 10, respectively.
